This is an account of results in paper PMC6274713.

Data set [1] deals with MLL4 3500-3630 (UniProt O14686). Nature of the data set: MST. As to conditions: EMSA: LightShift RNA EMSA kit protocol, 1 or 2 nM RNA, 30 min at room temperature, 4 or 6% native PAGE, MST buffer, pH and temperature not given in the ….
In data set [2] the target is MLL4 4210-4280 (UniProt O14686). Kind of data set: MST. The settings on record: apparent Kd; EMSA: LightShift RNA EMSA kit protocol, 1 or 2 nM RNA, 30 min at room temperature, 4 or 6% native PAGE; MST buffer, pH and temperature not given in the …. On the technique in general: A gel shift assay detects complexes by their altered migration in electrophoresis.

On to HOTAIR300, for which the Kd in data set [1] is 970 nM.
The same measure, in the same setting: then MEG3 full length, with 722 nM.
Take HOTAIR440: the Kd in data set [2] is 13000 nM; in data set [1] (apparent, from T-jump, aggregation above 1:20 RNA:protein, no saturation), 100 nM.
